This is an account of results in patent EP2718311B1 (TLA Targeted Immunotherapies AB, dated 2018).

The target of assay [1] is hCCR5 (human) (UniProt P51681). The assay can be described thus: cell-based or functional assay.
The target in assay [2] is hCCR5 (human) (UniProt P51681). The assay can be described thus: blood of a healthy donor passed through a column of biotinylated RANTES coupled matrix; flow cytometry for CCR1, 3 and 5-expressing cells.
Assay [3] deals with hCCR3 (human) (UniProt P51677). The description is as above.
The target in assay [4] is T1, CCR1 on human peripheral blood cells (human) (UniProt P32246).
T1 sequence (looked up): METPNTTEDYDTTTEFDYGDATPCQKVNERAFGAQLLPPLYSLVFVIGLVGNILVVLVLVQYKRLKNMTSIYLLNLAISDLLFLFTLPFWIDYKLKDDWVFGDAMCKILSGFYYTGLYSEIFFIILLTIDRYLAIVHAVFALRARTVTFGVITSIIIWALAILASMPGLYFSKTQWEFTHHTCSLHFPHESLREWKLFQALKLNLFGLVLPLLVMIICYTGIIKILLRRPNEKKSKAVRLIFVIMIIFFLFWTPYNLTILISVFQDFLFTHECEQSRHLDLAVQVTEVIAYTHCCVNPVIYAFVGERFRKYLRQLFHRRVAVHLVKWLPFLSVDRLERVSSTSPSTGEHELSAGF
Described as above.

Assay [5] deals with hCCR9 (human) (UniProt P51686). Nature of the assay: cell-based or functional assay.
Assay [6] addresses hCXCR3 (human) (UniProt P49682). The assay can be described thus: cell-based or functional assay.
Assay [7] has as its target hCCR6 (human) (UniProt P51684). The assay can be described thus: cell-based or functional assay.
Assay [8] deals with hCCR3 (human) (UniProt P51677). The assay can be described thus: cell-based or functional assay.
Assay [9] deals with CCR2 on human peripheral blood cells (monocytes, T cells) (human) (UniProt P41597). The assay can be described thus: flow cytometry, labelled MCP-1 on fixed blood leukocytes of healthy donors, 30 min at 4 °C. For orientation: Flow cytometry measures light scatter and fluorescence of single cells or particles in a stream.
For assay [10] the target is unchanged. Nature of the assay: blood of three healthy donors passed through a column of bMCP-1 coupled matrix; flow cytometry before and after.
In assay [11] the target is T2, hCCR2b (human, UniProt P41597 1-374).
T2 chain: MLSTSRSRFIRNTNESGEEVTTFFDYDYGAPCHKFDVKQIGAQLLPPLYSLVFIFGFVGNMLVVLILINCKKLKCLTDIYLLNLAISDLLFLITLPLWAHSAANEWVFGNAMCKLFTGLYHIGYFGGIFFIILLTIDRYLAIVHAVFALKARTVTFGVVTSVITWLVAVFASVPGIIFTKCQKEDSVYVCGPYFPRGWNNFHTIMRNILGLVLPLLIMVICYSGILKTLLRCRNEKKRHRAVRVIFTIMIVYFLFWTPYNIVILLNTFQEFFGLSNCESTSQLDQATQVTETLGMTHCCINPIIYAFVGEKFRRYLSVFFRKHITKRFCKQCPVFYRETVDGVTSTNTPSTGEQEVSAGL
The assay can be described thus: cell-based or functional assay.

Chain of hCCR5 (human) (P51681 whole entry): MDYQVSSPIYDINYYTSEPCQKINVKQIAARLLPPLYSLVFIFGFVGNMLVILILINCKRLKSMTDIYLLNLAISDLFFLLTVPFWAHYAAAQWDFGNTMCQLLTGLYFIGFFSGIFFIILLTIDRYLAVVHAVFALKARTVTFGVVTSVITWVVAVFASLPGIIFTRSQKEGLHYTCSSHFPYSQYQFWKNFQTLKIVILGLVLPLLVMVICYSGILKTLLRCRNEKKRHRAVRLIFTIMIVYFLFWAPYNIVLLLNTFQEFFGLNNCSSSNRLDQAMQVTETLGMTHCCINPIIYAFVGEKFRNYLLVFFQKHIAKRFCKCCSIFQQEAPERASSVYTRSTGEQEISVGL
Chain of hCCR9 (human) (P51686 whole entry): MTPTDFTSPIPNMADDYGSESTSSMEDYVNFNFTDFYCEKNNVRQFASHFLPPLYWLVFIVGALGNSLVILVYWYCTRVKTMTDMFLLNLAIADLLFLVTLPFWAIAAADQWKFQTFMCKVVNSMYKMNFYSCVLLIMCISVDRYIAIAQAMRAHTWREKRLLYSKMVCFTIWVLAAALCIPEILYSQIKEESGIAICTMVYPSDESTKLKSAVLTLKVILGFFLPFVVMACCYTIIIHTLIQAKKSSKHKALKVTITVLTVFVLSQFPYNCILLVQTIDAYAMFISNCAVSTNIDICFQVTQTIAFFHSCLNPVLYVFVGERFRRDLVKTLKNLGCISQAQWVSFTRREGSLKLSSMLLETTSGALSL
Chain of hCXCR3 (human) (P49682 whole entry): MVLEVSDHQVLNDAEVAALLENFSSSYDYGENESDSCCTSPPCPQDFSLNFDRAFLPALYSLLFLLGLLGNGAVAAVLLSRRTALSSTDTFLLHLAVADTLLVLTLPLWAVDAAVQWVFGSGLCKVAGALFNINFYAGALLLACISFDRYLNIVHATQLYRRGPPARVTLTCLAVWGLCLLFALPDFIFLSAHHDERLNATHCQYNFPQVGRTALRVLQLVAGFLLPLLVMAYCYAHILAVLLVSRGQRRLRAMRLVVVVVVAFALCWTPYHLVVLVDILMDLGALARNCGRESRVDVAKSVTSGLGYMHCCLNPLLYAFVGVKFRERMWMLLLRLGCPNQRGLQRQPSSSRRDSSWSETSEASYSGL
Chain of hCCR3 (human) (P51677 whole entry): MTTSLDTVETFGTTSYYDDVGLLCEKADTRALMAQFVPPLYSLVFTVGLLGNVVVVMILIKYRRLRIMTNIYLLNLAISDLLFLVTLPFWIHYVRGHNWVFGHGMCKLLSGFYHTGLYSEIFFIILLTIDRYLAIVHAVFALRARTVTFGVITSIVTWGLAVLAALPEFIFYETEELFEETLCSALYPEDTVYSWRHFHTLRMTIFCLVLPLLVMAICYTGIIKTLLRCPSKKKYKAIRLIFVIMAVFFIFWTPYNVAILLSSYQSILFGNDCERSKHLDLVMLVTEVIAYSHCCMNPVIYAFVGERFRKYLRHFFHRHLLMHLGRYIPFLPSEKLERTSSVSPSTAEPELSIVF
Chain of hCCR6 (human) (P51684 whole entry): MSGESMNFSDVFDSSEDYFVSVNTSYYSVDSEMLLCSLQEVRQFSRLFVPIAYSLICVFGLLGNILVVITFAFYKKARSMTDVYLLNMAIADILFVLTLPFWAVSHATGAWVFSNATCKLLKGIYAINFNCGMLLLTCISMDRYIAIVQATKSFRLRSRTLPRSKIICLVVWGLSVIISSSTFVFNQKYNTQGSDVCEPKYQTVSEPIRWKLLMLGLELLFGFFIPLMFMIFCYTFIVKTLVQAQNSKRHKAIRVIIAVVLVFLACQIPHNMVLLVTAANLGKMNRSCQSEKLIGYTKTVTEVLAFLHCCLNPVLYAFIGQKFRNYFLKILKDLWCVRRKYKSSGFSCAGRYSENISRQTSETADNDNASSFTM

Regarding “biotinRANTES (CCL5) (from UniProt P13501 24-91) (ligand)”, the agonist activity in an Aequorin assay, EC50 in [1] was found to be 0.5 nM. In addition, the reduction of chemokine receptor-expressing cells by the column in assay [2], in assay [3] and in assay [4] was 20% in each case.
Take “recombinant native TECK (from UniProt O15444 24-150) (ligand)”: the agonist activity in an Aequorin assay, EC50 in [5] came out at 67.9 nM.
Turning to “recombinant native ITAC (from UniProt O14625 22-94) (ligand)”, the agonist activity in an Aequorin assay, EC50 in assay [6] is 0.7 nM.
Molecule “recombinant native MIP-3α (from UniProt P78556 27-96) (ligand)” came in with an agonist activity in an Aequorin assay, EC50 in assay [7] of 1 nM.
“recombinant native IP-10 (from UniProt P02778 22-98) (ligand)” showed an agonist activity in an Aequorin assay, EC50 in [6] of 4.4 nM.
Turning to “recombinant native eotaxin (from UniProt P51671 24-97) (ligand)”, in assay [8], the activity in an Aequorin assay (agonist), EC50 stood at 10.7 nM.
“biotinylated MCP-1 (from UniProt P13500 24-99) (ligand)” showed a percent of monocytes that bound the chemokine in assay [9] of 90%. In assay [10], this molecule gave a remaining levels of monocytes after column passage of 20 to 30%.
For “biotinTECK(Met to Nleu substitution) (from UniProt O15444 25-97) (ligand)”, the agonist activity in an Aequorin assay, EC50 in [5] came out at 63.6 nM.

B1: recombinant native MCP-2 (ligand, human, UniProt P80075 24-99, looked up)
chain: QPDSVSIPITCCFNVINRKIPIQRLESYTRITNIQCPKEAVIFKTKRGKEVCADPKERWVRDSMKHLDQIFQNLKP
On to B1, for which the “activity in an Aequorin assay (partial agonist), EC50” value in assay [11] was found to be 23.5 nM.
